Columns and labels:
[1] = molecular target: bromodomain protein 4 (Brd4), endogenous (human (endogenous in C33A and 293T)) (UniProt O60885)
[2] = molecular target: bromodomain protein 4 (Brd4), endogenous (human (endogenous in C33A and 293T)) (UniProt O60885); test: co-IP; nuclear extracts of transfected C33A or 293T cells IPed with polyclonal Brd4 antibody (NA or CA) or normal rabbit IgG, immunoblot; immuno-complexes unchanged at 300 mM NaCl, only slightly dissociated at 500 and 1000 mM
[3] = molecular target: bromodomain protein 4 (Brd4), endogenous (human (endogenous in C33A and 293T)) (UniProt O60885); remark: listed apart in the source

| Substance | MCV episome copy number by qPCR in 293-4T cells (stably expressing MCV LT and sT) super-transfected with the Brd4 471-730 DNI construct, 24 h to 4 days: reduction (∼60% within the first 24 h) [1] | percent of the MCV LT co-immunoprecipitated [2] | replication of the MCV genome (LT expressed from the viral genome) in 293T cells co-transfected with 0, 7 or 9 µg pcDNA4C-Brd4 471-730, DpnI-resistant DNA by Southern blotting at 24 h: inhibition [3] |
| --- | --- | --- | --- |
| MCV large T antigen (LT) expressed from pADL* (natural protein) | 94% | 20% | 92% |
| MCV large T antigen (LT), Xpress-tagged, from pcDNA4C-MCV LT (natural protein) | – | 40% | – |

From paper PMC3493480
